Reference: the supplement of paper PMC9112550, “Optimization of the antimicrobial peptide Bac7 by deep mutational scanning” (BMC Biology, 2022)

Tested on: Escherichia coli TOP10
Test: shrunken log2 fold change of peptide-encoding DNA abundance (4.5 h post-induction vs induction); higher = less antimicrobial activity (less host growth inhibition)
Details: time post-induction: 4.5 h; library: site-saturation at positions 5, 18, 19, 20
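Also: peptides expressed intracellularly from a pBAD plasmid library in pooled LB shake-flask culture, induced with 0.3% L-arabinose, DNA abundance read by NGS, three biological replicates, DESeq2 with apeglm shrinkage.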

Row | Sequence | shrunken log2 fold change
1 | RRIRDRPPRLPRPRPRPMFQPRP | -0.0111
2 | RRIRTRPPRLPRPRPRPSRKPRP | 0.0182
3 | RRIRERPPRLPRPRPRPIPIPRP | -0.027
4 | RRIRARPPRLPRPRPRPSCRPRP | 0.248
5 | RRIRNRPPRLPRPRPRPCCQPRP | -0.6
6 | RRIRQRPPRLPRPRPRPQGHPRP | -0.017
7 | RRIRMRPPRLPRPRPRPINDPRP | -0.401
8 | RRIRPRPPRLPRPRPRPDEKPRP | -0.0591
9 | RRIRTRPPRLPRPRPRPRRIPRP | -0.16
10 | RRIRPRPPRLPRPRPRPEEPPRP | 0.437
11 | RRIRCRPPRLPRPRPRPQSNPRP | -0.822
12 | RRIRNRPPRLPRPRPRPAARPRP | 0.161
13 | RRIRSRPPRLPRPRPRPSEGPRP | -0.559
14 | RRIRKRPPRLPRPRPRPTEGPRP | 0.869
15 | RRIRRRPPRLPRPRPRPQPIPRP | 0.206
16 | RRIRIRPPRLPRPRPRPNYVPRP | -0.115
17 | RRIRNRPPRLPRPRPRPSFPPRP | -0.19
18 | RRIRRRPPRLPRPRPRPVASPRP | 0.0932
19 | RRIRTRPPRLPRPRPRPEPNPRP | -0.0182
20 | RRIRVRPPRLPRPRPRPNYNPRP | -0.76
21 | RRIRIRPPRLPRPRPRPCLCPRP | 2.05
22 | RRIRQRPPRLPRPRPRPHMSPRP | -0.28
23 | RRIRFRPPRLPRPRPRPMGPPRP | -0.238
24 | RRIRSRPPRLPRPRPRPRCVPRP | 0.116
25 | RRIRPRPPRLPRPRPRPKGMPRP | 0.129

Row | Sequence | shrunken log2 fold change
26 | RRIRFRPPRLPRPRPRPSLFPRP | -0.291
27 | RRIRNRPPRLPRPRPRPRTWPRP | 0.415
28 | RRIRNRPPRLPRPRPRPSRTPRP | 0.0867
29 | RRIRIRPPRLPRPRPRPQLRPRP | -0.203
30 | RRIRVRPPRLPRPRPRPYIRPRP | -0.434
31 | RRIRPRPPRLPRPRPRPTDGPRP | -0.0563
32 | RRIRVRPPRLPRPRPRPPQIPRP | 0.22
33 | RRIRWRPPRLPRPRPRPVIIPRP | -0.219
34 | RRIRRRPPRLPRPRPRPRTMPRP | 0.221
35 | RRIRLRPPRLPRPRPRPRINPRP | -0.0907
36 | RRIRYRPPRLPRPRPRPYRDPRP | -0.0114
37 | RRIRQRPPRLPRPRPRPCLYPRP | -0.29
38 | RRIRDRPPRLPRPRPRPPDEPRP | 0.00333
39 | RRIRPRPPRLPRPRPRPFLIPRP | -0.459
40 | RRIRERPPRLPRPRPRPAPYPRP | -0.123
41 | RRIRFRPPRLPRPRPRPPRRPRP | 0.826
42 | RRIRARPPRLPRPRPRPRREPRP | 0.631
43 | RRIRIRPPRLPRPRPRPKIWPRP | 0.145
44 | RRIRLRPPRLPRPRPRPWRWPRP | 0.0385
45 | RRIRPRPPRLPRPRPRPSTRPRP | -0.0318
46 | RRIRARPPRLPRPRPRPPRSPRP | 1.12
47 | RRIRMRPPRLPRPRPRPALKPRP | 1.09
48 | RRIRNRPPRLPRPRPRPGCNPRP | -0.642
49 | RRIRSRPPRLPRPRPRPMYMPRP | -0.387
50 | RRIRDRPPRLPRPRPRPANNPRP | -0.218

Row | Sequence | shrunken log2 fold change
51 | RRIRVRPPRLPRPRPRPVEAPRP | 0.0669
52 | RRIRLRPPRLPRPRPRPSHKPRP | -0.354
53 | RRIRERPPRLPRPRPRPGRLPRP | -0.263
54 | RRIRPRPPRLPRPRPRPVWMPRP | 0.136
55 | RRIRVRPPRLPRPRPRPVKNPRP | 0.118
56 | RRIRGRPPRLPRPRPRPLGPPRP | 0.456
57 | RRIRSRPPRLPRPRPRPFAEPRP | 0.256
58 | RRIRMRPPRLPRPRPRPRYHPRP | -0.186
59 | RRIRNRPPRLPRPRPRPDPHPRP | -0.263
60 | RRIRNRPPRLPRPRPRPEFDPRP | 0.0248
61 | RRIRPRPPRLPRPRPRPAFDPRP | 0.388
62 | RRIRVRPPRLPRPRPRPQNVPRP | -0.51
63 | RRIRPRPPRLPRPRPRPTYNPRP | -0.664
64 | RRIRYRPPRLPRPRPRPRDHPRP | -0.308
65 | RRIRRRPPRLPRPRPRPWKDPRP | -0.0442
66 | RRIRWRPPRLPRPRPRPQEEPRP | 0.0983
67 | RRIRQRPPRLPRPRPRPRADPRP | 0.156
68 | RRIRFRPPRLPRPRPRPWHSPRP | -0.018
69 | RRIRCRPPRLPRPRPRPEARPRP | 0.193
70 | RRIRIRPPRLPRPRPRPIVNPRP | -0.67
71 | RRIRWRPPRLPRPRPRPASQPRP | 0.271
72 | RRIRQRPPRLPRPRPRPVVEPRP | 0.0249
73 | RRIRKRPPRLPRPRPRPMCLPRP | -0.0392
74 | RRIRVRPPRLPRPRPRPRNQPRP | 0.0453
75 | RRIRPRPPRLPRPRPRPGCKPRP | 0.368

Row | Sequence | shrunken log2 fold change
76 | RRIRIRPPRLPRPRPRPGVFPRP | 0.292
77 | RRIRWRPPRLPRPRPRPETSPRP | 0.7
78 | RRIRPRPPRLPRPRPRPIMFPRP | -0.37
79 | RRIRVRPPRLPRPRPRPEGSPRP | 0.464
80 | RRIRHRPPRLPRPRPRPCGLPRP | -0.0199
81 | RRIRKRPPRLPRPRPRPKQGPRP | 0.121
82 | RRIRLRPPRLPRPRPRPAWWPRP | 0.173
83 | RRIRFRPPRLPRPRPRPTMRPRP | 0.605
84 | RRIRSRPPRLPRPRPRPQGIPRP | 0.0897
85 | RRIRCRPPRLPRPRPRPKMRPRP | -0.00909
86 | RRIRKRPPRLPRPRPRPWQTPRP | 0.146
87 | RRIRPRPPRLPRPRPRPFSGPRP | -0.478
88 | RRIRRRPPRLPRPRPRPNPQPRP | 0.631
89 | RRIRWRPPRLPRPRPRPHKKPRP | 0.028
90 | RRIRSRPPRLPRPRPRPILNPRP | -0.183
91 | RRIRSRPPRLPRPRPRPHCPPRP | -0.0154
92 | RRIRCRPPRLPRPRPRPSKPPRP | -0.109
93 | RRIRKRPPRLPRPRPRPDIVPRP | 1.54
94 | RRIRQRPPRLPRPRPRPAPAPRP | 0.707
95 | RRIRVRPPRLPRPRPRPENFPRP | 0.0199
96 | RRIRNRPPRLPRPRPRPRHYPRP | -0.446
97 | RRIRGRPPRLPRPRPRPAGWPRP | 1.15
98 | RRIRTRPPRLPRPRPRPHQSPRP | -0.179
99 | RRIRTRPPRLPRPRPRPPVFPRP | 0.346
100 | RRIRDRPPRLPRPRPRPKQEPRP | 0.00491

Row | Sequence | shrunken log2 fold change
101 | RRIRMRPPRLPRPRPRPINWPRP | -0.011
102 | RRIRVRPPRLPRPRPRPHQQPRP | -0.0863
103 | RRIRQRPPRLPRPRPRPINWPRP | -0.0302
104 | RRIRVRPPRLPRPRPRPFDWPRP | -0.103
105 | RRIRLRPPRLPRPRPRPRFRPRP | 0.117
106 | RRIRMRPPRLPRPRPRPMALPRP | 0.517
107 | RRIRQRPPRLPRPRPRPRYDPRP | -0.0523
108 | RRIRMRPPRLPRPRPRPSFNPRP | -0.535
109 | RRIRMRPPRLPRPRPRPYMSPRP | -0.00176
110 | RRIRFRPPRLPRPRPRPYNGPRP | -1.47
111 | RRIRHRPPRLPRPRPRPTGFPRP | 0.0428
112 | RRIRMRPPRLPRPRPRPSSAPRP | 0.514
113 | RRIRKRPPRLPRPRPRPIFCPRP | 0.387
114 | RRIRDRPPRLPRPRPRPKRVPRP | -0.0521
115 | RRIRVRPPRLPRPRPRPWDTPRP | 0.00866
116 | RRIRTRPPRLPRPRPRPQPEPRP | 0.0514
117 | RRIRFRPPRLPRPRPRPGKFPRP | 0.138
118 | RRIRNRPPRLPRPRPRPWFCPRP | -0.861
119 | RRIRWRPPRLPRPRPRPSFCPRP | -0.136
120 | RRIRARPPRLPRPRPRPCYSPRP | -0.525
121 | RRIRTRPPRLPRPRPRPGHSPRP | 0.0834
122 | RRIRLRPPRLPRPRPRPWYDPRP | -0.309
123 | RRIRWRPPRLPRPRPRPQMSPRP | -0.149
124 | RRIRLRPPRLPRPRPRPISVPRP | -0.343
125 | RRIRLRPPRLPRPRPRPFIRPRP | -0.245
